Data published in paper PMC4336627.

Biological target: Flag-6xHis-TET2^CD (human)
Experiment: pull-down

- stoichiometry N: 1
Substance: Flag-WT1 (purified recombinant) (from UniProt P19544 1-449) (natural protein)
